These results are taken from US20260062488A1 (AbbVie / Abbott, published 2026).

Assay [1] addresses T1, cynomolgus FcγRI extracellular domain protein (cynomolgus monkey).
T1 construct: extracellular domain; also called Cyno FcγRI
Briefly: SPR (Biacore T200), FcγR captured, antibody injected. A general note: SPR reads the build-up and loss of mass on a sensor chip optically.

For assay [2], the target named is T2, cynomolgus FcγRIII extracellular domain protein (cynomolgus monkey, UniProt Q8SPW2 17-208).
T2 construct: extracellular domain; also called Cyno FcγRIII
T2 sequence (Q8SPW2 17-208): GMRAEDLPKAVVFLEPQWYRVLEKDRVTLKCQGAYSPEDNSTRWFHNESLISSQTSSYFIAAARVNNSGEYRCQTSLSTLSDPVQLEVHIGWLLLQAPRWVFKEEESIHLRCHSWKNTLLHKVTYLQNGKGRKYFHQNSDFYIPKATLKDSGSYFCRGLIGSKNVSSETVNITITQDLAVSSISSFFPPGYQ
Described as above.

Assay [3] has as its target T3, cynomolgus α4β7 integrin (cynomolgus monkey).
T3 construct: whole, on cells; On CHOK1-cα4β7 cells or cynomolgus blood lymphocytes; also called cα4β7; cyno α4β7
Briefly: FACS, cyno CD4+ naïve T cells. For orientation: A flow cytometer gives signals particle by particle.

The next assay has as its target T4, FcgRIIIB NA2 (human, UniProt O75015).
T4 construct: cell surface, on engineered CHO-K1 cells; the list of molecules has only an FcγRIIIb on CHO-K1 cells without the allotype; also called human FcγRIIIb (NA2) on CHO-K1 cells
Briefly: flow cytometry on CHO-K1 cells expressing the receptor (curve FcgRIIIB NA2), monomeric antibody, F(ab')2 anti-human IgG AF647; N=1.

In assay [4] the target is T3, cynomolgus α4β7 integrin. Briefly: FACS, cyno CD8+ naïve T cells.
The target in assay [5] is T1, cynomolgus FcγRI extracellular domain …. Briefly: SPR (Biacore), N = 1.
Assay [6] has as its target T5, cynomolgus FcγRIIa extracellular domain protein (cynomolgus monkey).
T5 construct: extracellular domain; also called Cyno FcγRIIa
In words: SPR (Biacore), N = 1.

Assay [7] deals with T3, cynomolgus α4β7 integrin. Briefly: FACS, cyno CD4+ naïve.
Assay [8] deals with T6, human FcγRIIIa (V176) on CHO-K1 cells (human, UniProt P08637 17-254).
T6 construct: whole, on cells; also called V158
T6 sequence (P08637 17-254 F176V limits assumed): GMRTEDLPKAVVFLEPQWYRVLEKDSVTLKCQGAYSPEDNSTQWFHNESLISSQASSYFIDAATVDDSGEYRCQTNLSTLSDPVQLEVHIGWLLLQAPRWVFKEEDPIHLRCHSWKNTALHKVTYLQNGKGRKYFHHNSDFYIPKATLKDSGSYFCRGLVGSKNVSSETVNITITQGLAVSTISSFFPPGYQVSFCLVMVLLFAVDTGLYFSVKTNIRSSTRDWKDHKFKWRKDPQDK
Briefly: flow cytometry on CHO-K1 cells expressing the receptor (curve FcgRIIIA V176), monomeric antibody, F(ab')2 anti-human IgG AF647; N=1.

Assay [9] concerns the target T3, cynomolgus α4β7 integrin. In words: FACS, cyno total CD4+ T cells.
Assay [10] deals with T3, cynomolgus α4β7 integrin. Briefly: FACS, cyno CD8+ naïve.
Assay [11] concerns the target T3, cynomolgus α4β7 integrin. Briefly: binding, cynomolgus lymphocytes, summary table.
For assay [12], the target named is T7, human FcγRIIc on CHO-K1 cells (human, UniProt P31995 43-323).
T7 construct: whole, on cells
T7 sequence (looked up): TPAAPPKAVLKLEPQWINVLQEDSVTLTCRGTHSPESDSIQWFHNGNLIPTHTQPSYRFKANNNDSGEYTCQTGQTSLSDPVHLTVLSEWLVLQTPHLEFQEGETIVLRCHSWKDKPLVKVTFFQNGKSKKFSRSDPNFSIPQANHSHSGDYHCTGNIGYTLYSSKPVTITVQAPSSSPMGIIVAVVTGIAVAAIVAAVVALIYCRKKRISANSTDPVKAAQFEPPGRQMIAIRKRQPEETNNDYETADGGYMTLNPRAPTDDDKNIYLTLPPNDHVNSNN
In words: flow cytometry on CHO-K1 cells expressing the receptor (curve FcgRIIC), monomeric antibody, F(ab')2 anti-human IgG AF647; N=1.

Assay [13] concerns the target T8, human FcγRIIa (R131) extracellular domain protein (human, UniProt P12318 34-217).
T8 construct: extracellular domain; also called hFcγRIIa (R131); FcγRIIa 131R
T8 sequence (looked up): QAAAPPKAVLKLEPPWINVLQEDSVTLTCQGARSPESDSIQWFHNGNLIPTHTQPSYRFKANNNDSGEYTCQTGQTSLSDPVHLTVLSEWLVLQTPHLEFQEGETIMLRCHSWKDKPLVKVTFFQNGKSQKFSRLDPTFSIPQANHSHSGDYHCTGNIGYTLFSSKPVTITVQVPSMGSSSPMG
In words: SPR (Biacore), N = 1.

Assay [14] concerns the target T9, human FcγRIIa (H131) extracellular domain protein (human, UniProt P12318 34-217).
T9 construct: extracellular domain; also called hFcγRIIa (H131); FcγRIIa 131H
T9 sequence (looked up): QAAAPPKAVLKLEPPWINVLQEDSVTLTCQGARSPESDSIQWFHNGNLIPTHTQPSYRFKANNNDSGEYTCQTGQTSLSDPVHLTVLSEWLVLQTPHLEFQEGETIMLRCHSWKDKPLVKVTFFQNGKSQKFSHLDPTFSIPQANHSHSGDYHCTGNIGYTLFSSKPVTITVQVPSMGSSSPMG
Briefly: SPR (Biacore), N = 1.

In assay [15] the target is T10, human FcγRIIIa (V158) extracellular domain protein (human, UniProt P08637 17-208).
T10 construct: extracellular domain; also called hFcγRIIIa (V158); FcγRIIIa158V
T10 sequence (P08637 17-208 F176V limits assumed): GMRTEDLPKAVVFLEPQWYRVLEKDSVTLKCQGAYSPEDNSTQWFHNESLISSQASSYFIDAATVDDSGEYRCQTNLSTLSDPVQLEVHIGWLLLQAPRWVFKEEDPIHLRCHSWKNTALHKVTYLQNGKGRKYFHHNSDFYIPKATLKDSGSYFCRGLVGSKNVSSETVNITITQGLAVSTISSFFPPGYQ
In words: SPR (Biacore), N = 1.

Assay [16] deals with T11, human FcγRIIIa (F158) extracellular domain protein (human, UniProt P08637 17-208).
T11 construct: extracellular domain; also called hFcγRIIIa (F158); FcγRIIIa158F
T11 sequence (P08637 17-208): as the sequence (P08637 17-208 F176V limits assumed) above, with V160F counted along it
In words: SPR (Biacore), N = 1.

In assay [17] the target is T12, human FcγRIIb extracellular domain protein (human, UniProt P31994 43-217).
T12 construct: extracellular domain; also called hFcγRIIb
T12 sequence (looked up): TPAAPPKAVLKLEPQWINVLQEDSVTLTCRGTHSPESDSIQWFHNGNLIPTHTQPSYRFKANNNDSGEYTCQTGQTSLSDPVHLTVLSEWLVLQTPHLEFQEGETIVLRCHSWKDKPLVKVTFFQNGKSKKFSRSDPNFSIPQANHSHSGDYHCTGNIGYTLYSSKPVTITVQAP
Briefly: SPR (Biacore), N = 1.

Assay [18] deals with T13, human FcγRI extracellular domain protein (human, UniProt P12314 16-292).
T13 construct: extracellular domain; also called hFcγRI
T13 sequence (P12314 16-292): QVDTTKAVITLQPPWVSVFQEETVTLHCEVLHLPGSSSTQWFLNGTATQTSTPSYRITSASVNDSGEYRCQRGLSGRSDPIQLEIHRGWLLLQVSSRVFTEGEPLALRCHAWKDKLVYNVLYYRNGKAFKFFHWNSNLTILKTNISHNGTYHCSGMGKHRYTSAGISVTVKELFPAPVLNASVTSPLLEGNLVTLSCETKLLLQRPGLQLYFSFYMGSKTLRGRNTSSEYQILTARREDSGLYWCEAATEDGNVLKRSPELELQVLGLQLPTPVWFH
In words: SPR (Biacore), N = 1.

The next assay has as its target T14, human FcRn ECD protein (human, UniProt P55899 24-297; P61769 21-119).
T14 construct: extracellular domain
Briefly: SPR (Biacore), antibody immobilised, FcRn injected, pH 6.0, steady state; pH 6.0.

For assay [19], the target named is T15, cynomolgus FcRn ECD protein (cynomolgus monkey, UniProt Q8SPV9 24-297; Q8SPW0 21-119).
T15 construct: extracellular domain
T15 sequence (Q8SPV9 24-297 limits assumed, chain 1 of 2): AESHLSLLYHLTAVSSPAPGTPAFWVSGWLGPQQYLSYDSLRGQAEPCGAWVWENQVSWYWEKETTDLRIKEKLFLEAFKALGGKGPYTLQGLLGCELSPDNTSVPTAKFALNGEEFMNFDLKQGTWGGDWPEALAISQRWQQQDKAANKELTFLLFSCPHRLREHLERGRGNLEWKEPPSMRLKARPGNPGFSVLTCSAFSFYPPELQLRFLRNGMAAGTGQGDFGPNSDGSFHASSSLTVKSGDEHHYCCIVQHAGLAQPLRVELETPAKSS
T15 sequence (Q8SPW0 21-119 limits assumed, chain 2 of 2): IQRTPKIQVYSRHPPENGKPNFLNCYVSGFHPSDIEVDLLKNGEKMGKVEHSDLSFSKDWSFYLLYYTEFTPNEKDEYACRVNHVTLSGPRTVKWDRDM
The assay is described as above.

T14 sequence (P55899 24-297 limits assumed, chain 1 of 2): as the sequence (Q8SPV9 24-297 limits assumed, chain 1 of 2) above, with D39N, Q44E, S99G, G189S, N190S, M217L, T269S counted along it
T14 sequence (P61769 21-119 limits assumed, chain 2 of 2): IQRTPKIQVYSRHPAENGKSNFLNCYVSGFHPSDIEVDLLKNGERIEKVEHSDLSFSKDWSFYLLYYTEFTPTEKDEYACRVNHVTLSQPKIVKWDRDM
T4 sequence (O75015 17-200 N65S limits assumed): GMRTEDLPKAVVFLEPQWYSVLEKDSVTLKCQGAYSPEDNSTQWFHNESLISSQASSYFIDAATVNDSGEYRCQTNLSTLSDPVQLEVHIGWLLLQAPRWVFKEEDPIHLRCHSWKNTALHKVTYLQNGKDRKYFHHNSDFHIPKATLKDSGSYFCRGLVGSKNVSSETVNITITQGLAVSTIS

B1: Ab-h1.9d-WT (antibody, human IgG1, kappa)
heavy: not shown
light: DIQMTQSPSSLSASVGDRVTITCHASQDISDNIGWLQQKPGKSFKLLIYHGTNLEDGVPSRFSGSGSGTDYTLTISSLQPEDFATYYCVQYAQFPWTFGGGTKVEIKRTVAAPSVFIFPPSDEQLKSGTASVVCLLNNFYPREAKVQWKVDNALQSGNSQESVTEQDSKDSTYSLSSTLTLSKADYEKHKVYACEVTHQGLSSPVTKSFNRGEC
notes: IgG1/kappa with D356E and L358M (EU); also called Anti-human α4β7 (AC-166667) hu IgG1/k WT mAb
As a reminder, the Kd is the equilibrium constant for the complex coming apart. Low values mean a tighter complex, high ones a looser complex. As a reminder, the EC50 is the concentration that produces a half-maximal response. Take B1: the dissociation constant Kd in assay [1] came out at 12 nM; in assay [2], 280 nM; in assay [5], 1.4 nM; in assay [6] it was 8200 nM; in assay [13], 5200 nM; in assay [14] it was 4000 nM. Besides, the Kd in assay [15] stood at 100 nM; in assay [16], 3100 nM; in [17], 12000 nM; in assay [18], 7 nM; with human FcRn ECD protein, 3300 nM; in assay [19], 2200 nM. The EC50 is 0.045 nM with cynomolgus α4β7 integrin [3]; 0.042 nM with cynomolgus α4β7 integrin [4]; 0.045 nM with cynomolgus α4β7 integrin [7]; 0.03 nM with cynomolgus α4β7 integrin [9]; 0.042 nM in the assay with cynomolgus α4β7 integrin [10]; 0.062 nM with cynomolgus α4β7 integrin [11]. Further, the binding result (with FcgRIIIB NA2; in assay [8]; in assay [12]) was “binds” each time.
